According to US6638518B1 (priority 1999, dated 2003):
Where two headings read alike, the source gives them in different places.

Key:
[1] = system: BCG attachment to fibronectin; format: binding, M. bovis BCG; details: recombinant FAP 1 μM or peptide, 90 minutes, 37° C.; FIG. 4
[2] = biological target: T1, human fibronectin (Homo sapiens, UniProt P02751); test: Attachment of FAP to fibronectin (biotinylated fusion proteins on coated wells); format: binding
T1 construct: purchased Collaborative Biomedical Products, Bedford, Mass
T1 sequence (P02751 32-2477): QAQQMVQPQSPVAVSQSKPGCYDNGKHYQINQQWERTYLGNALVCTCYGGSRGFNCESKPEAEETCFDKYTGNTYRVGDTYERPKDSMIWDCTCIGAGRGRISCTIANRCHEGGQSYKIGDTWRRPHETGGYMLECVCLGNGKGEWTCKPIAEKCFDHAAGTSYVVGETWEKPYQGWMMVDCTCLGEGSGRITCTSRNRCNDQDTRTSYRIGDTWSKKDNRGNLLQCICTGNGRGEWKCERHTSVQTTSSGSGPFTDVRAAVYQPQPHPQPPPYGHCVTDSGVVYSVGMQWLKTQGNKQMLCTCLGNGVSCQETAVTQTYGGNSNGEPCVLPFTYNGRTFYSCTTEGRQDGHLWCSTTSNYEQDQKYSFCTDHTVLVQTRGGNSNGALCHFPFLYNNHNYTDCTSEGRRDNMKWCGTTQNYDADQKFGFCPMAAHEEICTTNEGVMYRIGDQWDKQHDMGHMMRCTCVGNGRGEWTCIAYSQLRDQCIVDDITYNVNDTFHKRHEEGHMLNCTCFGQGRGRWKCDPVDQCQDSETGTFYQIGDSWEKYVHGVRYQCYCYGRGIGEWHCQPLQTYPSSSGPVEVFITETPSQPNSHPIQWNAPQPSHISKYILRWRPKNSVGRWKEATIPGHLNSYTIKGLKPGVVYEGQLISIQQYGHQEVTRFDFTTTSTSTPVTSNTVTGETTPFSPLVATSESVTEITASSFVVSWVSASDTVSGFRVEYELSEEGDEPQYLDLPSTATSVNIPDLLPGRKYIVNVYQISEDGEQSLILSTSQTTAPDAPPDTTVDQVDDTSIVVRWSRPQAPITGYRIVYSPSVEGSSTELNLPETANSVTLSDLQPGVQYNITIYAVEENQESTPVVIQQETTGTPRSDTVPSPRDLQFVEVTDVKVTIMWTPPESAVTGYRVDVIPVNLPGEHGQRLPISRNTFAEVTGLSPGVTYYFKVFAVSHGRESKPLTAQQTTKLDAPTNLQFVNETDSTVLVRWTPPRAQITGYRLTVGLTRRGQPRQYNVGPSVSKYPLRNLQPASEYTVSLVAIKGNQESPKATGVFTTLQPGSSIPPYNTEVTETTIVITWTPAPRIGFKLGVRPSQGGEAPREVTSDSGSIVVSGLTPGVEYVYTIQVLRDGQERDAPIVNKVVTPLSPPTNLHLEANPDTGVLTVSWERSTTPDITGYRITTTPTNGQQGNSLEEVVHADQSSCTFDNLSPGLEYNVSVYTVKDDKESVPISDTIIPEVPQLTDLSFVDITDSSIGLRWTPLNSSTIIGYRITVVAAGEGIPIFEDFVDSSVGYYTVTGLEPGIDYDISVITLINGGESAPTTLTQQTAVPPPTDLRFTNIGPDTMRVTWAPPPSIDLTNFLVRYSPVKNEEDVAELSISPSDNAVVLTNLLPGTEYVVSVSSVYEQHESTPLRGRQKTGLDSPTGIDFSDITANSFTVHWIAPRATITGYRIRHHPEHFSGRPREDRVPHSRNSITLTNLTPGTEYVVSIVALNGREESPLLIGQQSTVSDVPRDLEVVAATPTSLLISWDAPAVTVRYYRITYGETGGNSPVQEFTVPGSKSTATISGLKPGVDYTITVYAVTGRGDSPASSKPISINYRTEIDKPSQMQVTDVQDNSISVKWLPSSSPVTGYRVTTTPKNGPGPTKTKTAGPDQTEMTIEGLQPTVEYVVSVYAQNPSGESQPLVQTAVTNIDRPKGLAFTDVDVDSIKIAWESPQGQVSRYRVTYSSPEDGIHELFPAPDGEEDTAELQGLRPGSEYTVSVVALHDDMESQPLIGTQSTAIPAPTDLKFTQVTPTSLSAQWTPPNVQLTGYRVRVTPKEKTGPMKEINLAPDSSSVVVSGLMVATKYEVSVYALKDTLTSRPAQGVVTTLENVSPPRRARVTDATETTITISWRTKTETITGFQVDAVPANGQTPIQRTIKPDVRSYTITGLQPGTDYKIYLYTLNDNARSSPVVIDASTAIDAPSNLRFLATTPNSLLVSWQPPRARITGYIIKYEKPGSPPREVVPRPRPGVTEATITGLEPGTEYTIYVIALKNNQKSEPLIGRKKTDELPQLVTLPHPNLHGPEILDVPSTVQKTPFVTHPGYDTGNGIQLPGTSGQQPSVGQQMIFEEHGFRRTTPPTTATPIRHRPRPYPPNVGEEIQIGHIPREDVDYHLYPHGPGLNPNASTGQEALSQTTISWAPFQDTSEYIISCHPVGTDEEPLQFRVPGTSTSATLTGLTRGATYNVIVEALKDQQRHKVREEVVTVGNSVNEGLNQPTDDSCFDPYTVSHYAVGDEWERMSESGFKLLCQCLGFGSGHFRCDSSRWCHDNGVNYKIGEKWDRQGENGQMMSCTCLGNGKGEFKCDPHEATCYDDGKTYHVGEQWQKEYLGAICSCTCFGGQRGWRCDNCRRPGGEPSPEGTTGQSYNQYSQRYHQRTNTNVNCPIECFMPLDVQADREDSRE
Protocol: Ninety-six-well Immulon II plates (Dynatech, Chantilly, Va.) were coated with 1 μg of human fibronectin (Collaborative Biomedical Products, Bedford, Mass.) or bovine serum albumin (BSA) at 37° C. overnight. Recombinant FAP-B, FAP-A, and β-galactosidase fusion proteins were produced in the pTrcHis vector and purified as described for FAP-B, were biotinylated with NHS-LC-Biotin (Pierce, Rockford, Ill.). Biotinylated FAP-B, FAP-A and β-galactasidase fusion proteins (0.5 μg and 2 μg) were added to wells coated with fibronectin or BSA and incubated at 25° C. for 1 hour. The bound fusion proteins were detected with streptavidin-HRP (1:10,000 dilution; Pierce) and o-phenylenediamine dihydrochloride (Sigma) substrate.

Row | Molecule | inhibition of BCG attachment to fibronectin [1] | binding to fibronectin-coated wells [2] | binding to fibronectin-coated wells ([2]; biotinylated fusion proteins 0.5 μg and 2 μg, 25° C., 1 hour, FIG. 2)
1 | FAP-A269-292: Synthesized peptide of amino acids 269-292 of FAP-A, a conserved fibronectin binding region (GNRQRWFVVWLGTSNDPVDKVAAK) | inhibit BCG attachment to fibronectin in an equivalent manner | – | –
2 | β-galactosidase: Control recombinant β-galactosidase fusion protein produced in the pTrcHis vector | – | did not bind to fibronectin | –
3 | FAP-A: Fibronectin attachment protein produced by M. avium (SEQ ID NO:5, GenBank AAB50543), recombinant fusion protein (protein, listed as Mycobacterium avium, recombinant fusion partner) MDQVEATSTRRKGLWTTLAITTVSGASAVVIALPETSHADPEVPTPVPPSTATTPHPRRRRIPGQPADNAQAGAPAPAPNGQQRPPRRRRMIPTRAPPPAGAPPNGAPPAAPNGAPPPPVDPNAPPPPPADPNAGRIPNSYVLPAGWVESDASHLDYGSALLSKVTGPPPMPDQPPPVANDTRIVMGRVDQKLYASAEANNAKAAVGLGSDMGEFFMPYPGTRINQDSTPLNGANGSTGSASYYEVKFSDASKPNGQIWTGVIGSANAGNRQRWFVVWLGTSNDPVDKVAAKALAESIQAWTPPPAPPAAPGGPGAPAPGAPGAPAPGAPAAPGVTAPAAPAPAAPGAPAAPGAPAPEPGQAPAVEVSPTPTPTPQQTLSA | inhibit BCG attachment to fibronectin in an equivalent manner | – | bound to wells coated with fibronectin
